# Measurements from paper PMC11425648.
# Molecular target: free UbcH8 (Ube2L6), GST tag removed (human)
# Assay: SAXS; free UbcH8 (GST removed) at 300 μM, 10 °C, six 10-min frames; dimer crystal structure 1WZV fitted to the dummy atom model
substance,measurement,value
"free UbcH8 (Ube2L6), GST tag removed (enzyme)",stoichiometry N,2
